# Results published in US20260049138A1 (Chugai, published 2026).
# Target: T1, CD3ε homodimer protein (human, UniProt P07766 23-126, limits assumed, sulfo-tag or biotin label in the ECL assays; amine-coupled to the chip in SPR)
# T1 construct: also called human CD3ε homodimer protein; CD3 (CD3ε)
# Test: SPR Biacore T200; CD3ε homodimer on CM4 chip;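 also: Single-residue variant antibodies injected as analyte over CD3ε homodimer immobilized by amine coupling, run at 25 °C in HBS-EP+ buffer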
# T1 sequence (P07766 23-126 limits assumed): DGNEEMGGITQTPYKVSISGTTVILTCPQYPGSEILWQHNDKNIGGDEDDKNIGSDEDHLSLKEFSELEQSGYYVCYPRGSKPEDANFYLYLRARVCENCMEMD
row,ratio of amounts bound Z=Y/X (altered form / CE115HA000),Binder
1,0.9,"CE115HA000 Y100A one-arm antibody (antibody, human IgG1, kappa, L234A L235A, N297A, name in Kabat numbering) heavy: QVQLVESGGGVVQPGRSLRLSCAASGFTFSNAWMHWVRQAPGKGLEWVAQIKAKSNNYATYYAESVKGRFTISRDDSKNSLYLQMNSLKTEDTAVYYCRYVHYGAAYGVDAWGQGTTVTVSSASTKGPSVFPLAPSSKSTSGGTAALGCLVKDYFPEPVTVSWNSGALTSGVHTFPAVLQSSGLYSLSSVVTVPSSSLGTQTYICNVNHKPSNTKVDKKVEPKSCDKTHTCPPCPAPEAAGGPSVFLFPPKPKDTLMISRTPEVTCVVVDVSHEDPEVKFNWYVDGVEVHNAKTKPREEQYASTYRVVSVLTVLHQDWLNGKEYKCKVSNKALPAPIEKTISKAKGQPREPQVYTLPPSRCELTKNQVSLSCAVKGFYPSDIAVEWESNGQPENNYKTTPPVLDSDGSFFLVSKLTVDKSRWQQGNVFSCSVMHEALHNHYTQKSLSLSPDYKDDDDK EPKSSDKTHTCPPCPAPELLGGPSVFLFPPKPKDTLMISRTPEVTCVVVDVSHEDPEVKFNWYVDGVEVHNAKTKPREEQYNSTYRVVSVLTVLHQDWLNGKEYKCKVSNKALPAPIEKTISKAKGQPREPQVCTLPPSRDELTKNQVSLWCLVKGFYPSDIAVEWESNGQPENNYKTTPPVLDSDGSFFLYSKLTVDKSRWQQGNVFSCSVMHEALHNRYTQKSLSLSP light: DIVMTQSPLSLPVTPGEPASISCRSSQSLVHSNRNTYLHWYQQKPGQAPRLLIYKVSNRFSGVPDRFSGSGSGTDFTLKISRVEAEDVGVYYCGQGTQVPYTFGQGTKLEIKRTVAAPSVFIFPPSDEQLKSGTASVVCLLNNFYPREAKVQWKVDNALQSGNSQESVTEQDSKDSTYSLSSTLTLSKADYEKHKVYACEVTHQGLSSPVTKSFNRGEC"
2,0.52,"CE115HA000 Y100D one-arm antibody (antibody, human IgG1, kappa, L234A L235A, N297A, name in Kabat numbering) heavy: QVQLVESGGGVVQPGRSLRLSCAASGFTFSNAWMHWVRQAPGKGLEWVAQIKAKSNNYATYYAESVKGRFTISRDDSKNSLYLQMNSLKTEDTAVYYCRYVHYGADYGVDAWGQGTTVTVSSASTKGPSVFPLAPSSKSTSGGTAALGCLVKDYFPEPVTVSWNSGALTSGVHTFPAVLQSSGLYSLSSVVTVPSSSLGTQTYICNVNHKPSNTKVDKKVEPKSCDKTHTCPPCPAPEAAGGPSVFLFPPKPKDTLMISRTPEVTCVVVDVSHEDPEVKFNWYVDGVEVHNAKTKPREEQYASTYRVVSVLTVLHQDWLNGKEYKCKVSNKALPAPIEKTISKAKGQPREPQVYTLPPSRCELTKNQVSLSCAVKGFYPSDIAVEWESNGQPENNYKTTPPVLDSDGSFFLVSKLTVDKSRWQQGNVFSCSVMHEALHNHYTQKSLSLSPDYKDDDDK EPKSSDKTHTCPPCPAPELLGGPSVFLFPPKPKDTLMISRTPEVTCVVVDVSHEDPEVKFNWYVDGVEVHNAKTKPREEQYNSTYRVVSVLTVLHQDWLNGKEYKCKVSNKALPAPIEKTISKAKGQPREPQVCTLPPSRDELTKNQVSLWCLVKGFYPSDIAVEWESNGQPENNYKTTPPVLDSDGSFFLYSKLTVDKSRWQQGNVFSCSVMHEALHNRYTQKSLSLSP light: DIVMTQSPLSLPVTPGEPASISCRSSQSLVHSNRNTYLHWYQQKPGQAPRLLIYKVSNRFSGVPDRFSGSGSGTDFTLKISRVEAEDVGVYYCGQGTQVPYTFGQGTKLEIKRTVAAPSVFIFPPSDEQLKSGTASVVCLLNNFYPREAKVQWKVDNALQSGNSQESVTEQDSKDSTYSLSSTLTLSKADYEKHKVYACEVTHQGLSSPVTKSFNRGEC"

# Further lines, the binder ahead of its results:
row,Binder,ratio of amounts bound Z=Y/X (altered form / CE115HA000)
1,"CE115HA000 Y97R one-arm antibody (antibody, human IgG1, kappa, L234A L235A, N297A, name in Kabat numbering) heavy: QVQLVESGGGVVQPGRSLRLSCAASGFTFSNAWMHWVRQAPGKGLEWVAQIKAKSNNYATYYAESVKGRFTISRDDSKNSLYLQMNSLKTEDTAVYYCRYVHRGAYYGVDAWGQGTTVTVSSASTKGPSVFPLAPSSKSTSGGTAALGCLVKDYFPEPVTVSWNSGALTSGVHTFPAVLQSSGLYSLSSVVTVPSSSLGTQTYICNVNHKPSNTKVDKKVEPKSCDKTHTCPPCPAPEAAGGPSVFLFPPKPKDTLMISRTPEVTCVVVDVSHEDPEVKFNWYVDGVEVHNAKTKPREEQYASTYRVVSVLTVLHQDWLNGKEYKCKVSNKALPAPIEKTISKAKGQPREPQVYTLPPSRCELTKNQVSLSCAVKGFYPSDIAVEWESNGQPENNYKTTPPVLDSDGSFFLVSKLTVDKSRWQQGNVFSCSVMHEALHNHYTQKSLSLSPDYKDDDDK EPKSSDKTHTCPPCPAPELLGGPSVFLFPPKPKDTLMISRTPEVTCVVVDVSHEDPEVKFNWYVDGVEVHNAKTKPREEQYNSTYRVVSVLTVLHQDWLNGKEYKCKVSNKALPAPIEKTISKAKGQPREPQVCTLPPSRDELTKNQVSLWCLVKGFYPSDIAVEWESNGQPENNYKTTPPVLDSDGSFFLYSKLTVDKSRWQQGNVFSCSVMHEALHNRYTQKSLSLSP light: DIVMTQSPLSLPVTPGEPASISCRSSQSLVHSNRNTYLHWYQQKPGQAPRLLIYKVSNRFSGVPDRFSGSGSGTDFTLKISRVEAEDVGVYYCGQGTQVPYTFGQGTKLEIKRTVAAPSVFIFPPSDEQLKSGTASVVCLLNNFYPREAKVQWKVDNALQSGNSQESVTEQDSKDSTYSLSSTLTLSKADYEKHKVYACEVTHQGLSSPVTKSFNRGEC",0.27
2,"CE115HA000 Y97S one-arm antibody (antibody, human IgG1, kappa, L234A L235A, N297A, name in Kabat numbering) heavy: QVQLVESGGGVVQPGRSLRLSCAASGFTFSNAWMHWVRQAPGKGLEWVAQIKAKSNNYATYYAESVKGRFTISRDDSKNSLYLQMNSLKTEDTAVYYCRYVHSGAYYGVDAWGQGTTVTVSSASTKGPSVFPLAPSSKSTSGGTAALGCLVKDYFPEPVTVSWNSGALTSGVHTFPAVLQSSGLYSLSSVVTVPSSSLGTQTYICNVNHKPSNTKVDKKVEPKSCDKTHTCPPCPAPEAAGGPSVFLFPPKPKDTLMISRTPEVTCVVVDVSHEDPEVKFNWYVDGVEVHNAKTKPREEQYASTYRVVSVLTVLHQDWLNGKEYKCKVSNKALPAPIEKTISKAKGQPREPQVYTLPPSRCELTKNQVSLSCAVKGFYPSDIAVEWESNGQPENNYKTTPPVLDSDGSFFLVSKLTVDKSRWQQGNVFSCSVMHEALHNHYTQKSLSLSPDYKDDDDK EPKSSDKTHTCPPCPAPELLGGPSVFLFPPKPKDTLMISRTPEVTCVVVDVSHEDPEVKFNWYVDGVEVHNAKTKPREEQYNSTYRVVSVLTVLHQDWLNGKEYKCKVSNKALPAPIEKTISKAKGQPREPQVCTLPPSRDELTKNQVSLWCLVKGFYPSDIAVEWESNGQPENNYKTTPPVLDSDGSFFLYSKLTVDKSRWQQGNVFSCSVMHEALHNRYTQKSLSLSP light: DIVMTQSPLSLPVTPGEPASISCRSSQSLVHSNRNTYLHWYQQKPGQAPRLLIYKVSNRFSGVPDRFSGSGSGTDFTLKISRVEAEDVGVYYCGQGTQVPYTFGQGTKLEIKRTVAAPSVFIFPPSDEQLKSGTASVVCLLNNFYPREAKVQWKVDNALQSGNSQESVTEQDSKDSTYSLSSTLTLSKADYEKHKVYACEVTHQGLSSPVTKSFNRGEC",0.18
